{"source": "IntAct's records for PubMed 19581362", "parents": {"B1": {"name": "Chemotaxis protein CheA (Escherichia coli (strain K12)), P07363 (parent)", "chain": "MSMDISDFYQTFFDEADELLADMEQHLLVLQPEAPDAEQLNAIFRAAHSIKGGAGTFGFSVLQETTHLMENLLDEARRGEMQLNTDIINLFLETKDIMQEQLDAYKQSQEPDAASFDYICQALRQLALEAKGETPSAVTRLSVVAKSEPQDEQSRSQSPRRIILSRLKAGEVDLLEEELGHLTTLTDVVKGADSLSAILPGDIAEDDITAVLCFVIEADQITFETVEVSPKISTPPVLKLAAEQAPTGRVEREKTTRSNESTSIRVAVEKVDQLINLVGELVITQSMLAQRSSELDPVNHGDLITSMGQLQRNARDLQESVMSIRMMPMEYVFSRYPRLVRDLAGKLGKQVELTLVGSSTELDKSLIERIIDPLTHLVRNSLDHGIELPEKRLAAGKNSVGNLILSAEHQGGNICIEVTDDGAGLNRERILAKAASQGLTVSENMSDDEVAMLIFAPGFSTAEQVTDVSGRGVGMDVVKRNIQKMGGHVEIQSKQGTGTTIRILLPLTLAILDGMSVRVADEVFILPLNAVMESLQPREADLHPLAGGERVLEVRGEYLPIVELWKVFNVAGAKTEATQGIVVILQSGGRRYALLVDQLIGQHQVVVKNLESNYRKVPGISAATILGDGSVALIVDVSALQAINREQRMANTAA", "partner": "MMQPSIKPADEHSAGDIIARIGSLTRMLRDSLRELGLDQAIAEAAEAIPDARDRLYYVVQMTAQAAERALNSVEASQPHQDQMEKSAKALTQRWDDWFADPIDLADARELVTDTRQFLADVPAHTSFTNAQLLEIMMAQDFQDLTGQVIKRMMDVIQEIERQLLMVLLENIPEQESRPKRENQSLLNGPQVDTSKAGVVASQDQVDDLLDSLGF"}}}
{"variants_of": "B1", "details": "with chez_ecoli cheZ"}
{"variant": "R124C", "effect of a mutation on the interaction": "decreasing interaction strength"}
{"variant": "L126C", "effect of a mutation on the interaction": "decreasing interaction strength"}
{"variant": "L123C", "effect of a mutation on the interaction": "decreasing interaction strength"}
{"variant": "Y118C", "effect of a mutation on the interaction": "decreasing interaction strength"}
